Legend:
[1] = molecular target: T1, murine CDH17 protein fragment, domain 1–3 (Mus musculus, UniProt Q9R100); assay: SPR; affinity determination of nanobodies against human and murine CDH17 proteins; settings: both partners purified
T1 construct: cadherin 17 (CDH17), mouse, domain 1–3; also called mouse CDH17; source: E. coli BL21(DE3), purified (Ni-NTA, gel filtration)

[2] = molecular target: T2, human CDH17 protein fragment, domain 1–3 (Homo sapiens, UniProt Q12864); assay: as above; settings: both partners purified
T2 construct: cadherin 17 (CDH17), human, domain 1–3; also called cadherin 17; CDH17 antigen; source: E. coli BL21(DE3), purified (Ni-NTA, gel filtration)
T2 sequence (Q12864 whole entry, looked up, the tested form may be a part): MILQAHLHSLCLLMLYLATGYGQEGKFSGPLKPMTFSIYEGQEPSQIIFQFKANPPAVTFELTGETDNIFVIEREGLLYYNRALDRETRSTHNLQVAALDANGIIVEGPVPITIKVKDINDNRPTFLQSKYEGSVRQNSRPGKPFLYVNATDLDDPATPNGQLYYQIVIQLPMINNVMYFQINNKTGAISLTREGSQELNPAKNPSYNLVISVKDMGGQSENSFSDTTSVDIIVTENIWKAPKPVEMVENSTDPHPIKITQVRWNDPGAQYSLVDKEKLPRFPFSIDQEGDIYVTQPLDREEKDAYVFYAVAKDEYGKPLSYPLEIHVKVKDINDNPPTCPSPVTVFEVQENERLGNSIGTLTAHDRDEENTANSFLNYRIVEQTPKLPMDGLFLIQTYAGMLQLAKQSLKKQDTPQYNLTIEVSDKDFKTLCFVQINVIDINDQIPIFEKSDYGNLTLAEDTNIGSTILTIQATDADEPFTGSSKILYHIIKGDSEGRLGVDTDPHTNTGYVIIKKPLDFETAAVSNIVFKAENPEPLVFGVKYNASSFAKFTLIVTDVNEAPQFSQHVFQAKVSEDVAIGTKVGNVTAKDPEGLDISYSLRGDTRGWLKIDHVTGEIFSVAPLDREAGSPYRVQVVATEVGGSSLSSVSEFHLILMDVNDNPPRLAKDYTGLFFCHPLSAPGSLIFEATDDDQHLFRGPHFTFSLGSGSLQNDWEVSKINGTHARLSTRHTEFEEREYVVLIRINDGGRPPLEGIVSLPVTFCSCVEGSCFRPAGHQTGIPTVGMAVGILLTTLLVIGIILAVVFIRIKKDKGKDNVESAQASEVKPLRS

T1 sequence (Q9R100 whole entry, looked up, the tested form may be a part): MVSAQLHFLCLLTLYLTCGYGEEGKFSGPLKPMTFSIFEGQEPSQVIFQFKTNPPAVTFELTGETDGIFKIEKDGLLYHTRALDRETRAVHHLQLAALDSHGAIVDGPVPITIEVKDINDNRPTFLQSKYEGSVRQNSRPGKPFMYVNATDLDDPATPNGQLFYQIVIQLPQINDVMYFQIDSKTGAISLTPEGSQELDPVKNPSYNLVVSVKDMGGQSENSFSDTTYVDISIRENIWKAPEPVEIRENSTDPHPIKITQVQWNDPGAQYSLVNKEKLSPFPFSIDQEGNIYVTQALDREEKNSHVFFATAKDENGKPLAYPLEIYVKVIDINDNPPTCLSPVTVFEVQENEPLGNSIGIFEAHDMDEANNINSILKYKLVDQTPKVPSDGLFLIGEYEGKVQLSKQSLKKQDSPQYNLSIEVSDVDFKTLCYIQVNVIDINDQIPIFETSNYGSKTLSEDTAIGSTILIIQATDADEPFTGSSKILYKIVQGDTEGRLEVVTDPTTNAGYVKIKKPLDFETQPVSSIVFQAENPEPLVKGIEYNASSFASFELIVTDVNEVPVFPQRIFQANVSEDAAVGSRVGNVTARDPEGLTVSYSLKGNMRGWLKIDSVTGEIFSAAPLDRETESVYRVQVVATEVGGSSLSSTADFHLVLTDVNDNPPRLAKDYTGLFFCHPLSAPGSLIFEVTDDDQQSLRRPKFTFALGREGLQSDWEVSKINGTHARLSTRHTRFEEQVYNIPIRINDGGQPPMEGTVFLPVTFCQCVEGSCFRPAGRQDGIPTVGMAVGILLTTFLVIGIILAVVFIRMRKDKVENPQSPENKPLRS

Binder | Kd [1] [µM] | Kd [2] [µM]
CDH17 nanobody Nb535 (VHH, source: prokaryotic vector pColdII (TAKARA), purified (Ni-NTA); not shown: HA, C-terminal, kept) VHH: AVQLVESGGGLVQPGGSLRLSCAASGRTFSSNGMGWFRQAPGKGREFVAAISWNAGTTLYTDSVKGRFTISRDNAKNTVYLQMNSLKPEDTAIYYCAAREYYGGSYYPSREYEYGYWGQGTQVTVSS | 0.109 | 0.0601
CDH17 nanobody Nb289 (VHH, as the VHH of m5 (A1) with one amino acid difference at position 44; also called Nb289 nanobody; source: prokaryotic vector pColdII (TAKARA), purified (Ni-NTA); not shown: HA, C-terminal, kept) VHH: AVQLVESGGGLVQAGDSLRLSCAASGRTFSSNGMGWFRQAPGTGREFVAAISWNAGTTLYTDSVKGRFTISRDNAKNTVYLQMNSLKPEDTAIYYCAAREYYGGSYYPSREYEYGYWGQGTQVTVSS | 0.0325 | 0.0201

— publication PMC11336900, “Nanobody‐Engineered Biohybrid Bacteria Targeting Gastrointestinal Cancers Induce Robust STING‐Mediated Anti‐Tumor Immunity” (Advanced Science, 2024)
